Test [1] concerns the target T1, recombinant soluble human IL-6 receptor (SR344) (human, UniProt P08887 20-344).
T1 construct: In the 'membrane-type IL-6 receptor' Biacore assays the same SR344 was biotinylated and immobilized via streptavidin; also called soluble IL-6 receptor; membrane-type IL-6 receptor (as biotinylated SR344 immobilized on the sensor chip)
T1 sequence (looked up): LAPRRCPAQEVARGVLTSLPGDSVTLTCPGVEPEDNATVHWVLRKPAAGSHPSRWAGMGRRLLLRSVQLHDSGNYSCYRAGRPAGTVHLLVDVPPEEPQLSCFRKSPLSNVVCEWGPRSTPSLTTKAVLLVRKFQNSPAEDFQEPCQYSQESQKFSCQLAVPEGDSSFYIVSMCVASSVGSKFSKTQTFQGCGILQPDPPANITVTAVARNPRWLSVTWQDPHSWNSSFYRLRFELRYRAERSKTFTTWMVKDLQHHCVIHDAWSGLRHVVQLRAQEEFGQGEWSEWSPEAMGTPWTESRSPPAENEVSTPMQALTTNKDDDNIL
The test can be described thus: Biacore T100, biotinylated SR344 immobilized via streptavidin (membrane-type IL-6 receptor model), antibody as analyte; ratio of kd at pH 5.8 to pH 7.4. How it is done:
(§1) Binding to the membrane-type IL-6 receptor was evaluated by evaluating binding to the IL-6 receptor immobilized on a sensor chip. SR344 was biotinylated in accordance with a method known among persons with ordinary skill in the art, and the biotinylated SR344 was immobilized on the sensor chip via streptavidin using the affinity between streptavidin and biotin. All the measurements were carried out at 37° C. The mobile phase buffer was 10 mM MES (pH 5.8), 150 mM NaCl and 0.05% Tween 20.
(§2) The pH-dependently-binding clones were injected under the condition of pH 7.4 to allow them to bind to SR344, and then, the pH-dependent dissociation of each clone at the pH of the mobile phase, pH 5.8, was observed. The results are shown in FIG. 21 (results for Fv1-M71, Fv1-M73, Fv3-M71, and Fv3-M73 are shown in FIG. 21, while results for other clones are shown in FIGS. 17 and 19). Analyses were carried out in the same manner as in Example 10 and the pH dependencies of the dissociation rate constants of all of the eleven types of clones are shown in Table 12.

In test [2] the target is T1, recombinant soluble human IL-6 receptor …. Described as above. As for the experimental part: as §1, §2
This is another data set of the same source.

The record followed here is patent US20110111406A1 (published 2011).

Read-outs that look alike come from different tables or passages of the source.

B1: Fv4-M58 (antibody)
heavy: QVQLQESGPGLVKPSETLSLTCAVSGHSISHDHAWSWVRQPPGEGLEWIGFISYSGITNYNPSLQGRVTISRDNSKNTLYLQMNSLRAEDTAVYYCARSLARTTAMDYWGEGTLVTVSSASTKGPSVFPLAPSSKSTSGGTAALGCLVKDYFPEPVTVSWNSGALTSGVHTFPAVLQSSGLYSLSSVVTVPSSNFGTQTYTCNVDHKPSNTKVDKTVERKSCVECPPCPAPPVAGPSVFLFPPKPKDTLMISRTPEVTCVVVDVSQEDPEVQFNWYVDGVEVHNAKTKPREEQFNSTFRVVSVLTVVHQDWLNGKEYKCKVSNKGLPAPIEKTISKTKGQPREPQVYTLPPSQEEMTKNQVSLTCLVKGFYPSDIAVEWESNGQPENNYKTTPPMLDSDGSFFLYSKLTVDKSRWQEGNVFSCSVMHEALHNHYTQKSLSLSP
light: DIQMTQSPSSLSASVGDSVTITCQASTDISSHLNWYQQKPGKAPELLIYYGSHLLSGVPSRFSGSGSGTDFTFTISSLEAEDAATYYCGQGNRLPYTFGQGTKVEIERTVAAPSVFIFPPSDEQLKSGTASVVCLLNNFYPREAKVQWKVDNALQSGNSQESVTEQDSKDSTYSLSSTLTLSKADYEKHKVYACEVTHQGLSSPVTKSFNRGEC
notes: also called VH3-M58/VL3-CK
Regarding B1, the “kd(pH 5.8)/kd(pH 7.4)” value in test [1] and in test [2] was 17.6 throughout.

B2: Fv3-M71 (antibody, human IgG2, kappa)
heavy: QVQLQESGPGLVKPSETLSLTCAVSGHSISHDHAWSWVRQPPGEGLEWIGFISYSGITNYNPTLQGRVTISRDNSKNTLYLQMNSLRAEDTAVYYCARSLARTTAMDYWGEGTLVTVSSASTKGPSVFPLAPCSRSTSESTAALGCLVKDYFPEPVTVSWNSGALTSGVHTFPAVLQSSGLYSLSSVVTVPSSNFGTQTYTCNVDHKPSNTKVDKTVERKCCVECPPCPAPPVAGPSVFLFPPKPKDTLMISRTPEVTCVVVDVSHEDPEVQFNWYVDGVEVHNAKTKPREEQFNSTFRVVSVLTVVHQDWLNGKEYKCKVSNKGLPAPIEKTISKTKGQPREPQVYTLPPSREEMTKNQVSLTCLVKGFYPSDIAVEWESNGQPENNYKTTPPMLDSDGSFFLYSKLTVDKSRWQQGNVFSCSVMHEALHAHYTQKSLSLSPGK
light: DIQMTQSPSSLSASVGDSVTITCQASRDISSHLNWYQQKPGKAPELLIYYGSHLLSGVPSRFSGSGSGTDFTFTISSLEAEDAATYYCGQGNRLPYTFGQGTKVEIERTVAAPSVFIFPPSDEQLKSGTASVVCLLNNFYPREAKVQWKVDNALQSGNSQESVTEQDSKDSTYSLSSTLTLSKADYEKHKVYACEVTHQGLSSPVTKSFNRGEC
notes: also called VH4-M71/VL1-CK
Turning to B2, the “kd(pH 5.8)/kd(pH 7.4)” value in test [1] stood at 10.7.

B3: Fv1-M73 (antibody)
heavy: QVQLQESGPGLVKPSETLSLTCAVSGYSISHDHAWSWVRQPPGEGLEWIGHISYSGITNYNPHLQDRVTISRDTSKNQFSLKLSSVTAADTAVYYCARFLARITAHDHWGEGTLVTVSSASTKGPSVFPLAPSSKSTSGGTAALGCLVKDYFPEPVTVSWNSGALTSGVHTFPAVLQSSGLYSLSSVVTVPSSNFGTQTYTCNVDHKPSNTKVDKTVERKSCVECPPCPAPPVAGPSVFLFPPKPKDTLMISRTPEVTCVVVDVSQEDPEVQFNWYVDGVEVHNAKTKPREEQFNSTFRVVSVLTVVHQDWLNGKEYKCKVSNKGLPAPIEKTISKTKGQPREPQVYTLPPSQEEMTKNQVSLTCLVKGFYPSDIAVEWESNGQPENNYKTTPPMLDSDGSFFLYSKLTVDKSRWQEGNVFSCSVMHEALHAHYTQKSLSLSP
light: DIQMTQSPSSLSASVGDSVTITCQASRDISSHLNWYQQKPGKAPELLIYYGSHLESGVPSRFSGSGSGTDFTFTISSLEAEDAATYYCGQGNRLPYTFGQGTKVEIERTVAAPSVFIFPPSDEQLKSGTASVVCLLNNFYPREAKVQWKVDNALQSGNSQESVTEQDSKDSTYSLSSTLTLSKADYEKHKVYACEVTHQGLSSPVTKSFNRGEC
notes: also called VH2-M73/VL2-CK
For B3, the “kd(pH 5.8)/kd(pH 7.4)” value in test [1] came to 8.8.

B4: Fv1-M71 (antibody, human IgG2, kappa)
heavy: QVQLQESGPGLVKPSETLSLTCAVSGYSISHDHAWSWVRQPPGEGLEWIGHISYSGITNYNPHLQDRVTISRDTSKNQFSLKLSSVTAADTAVYYCARFLARITAHDHWGEGTLVTVSSASTKGPSVFPLAPCSRSTSESTAALGCLVKDYFPEPVTVSWNSGALTSGVHTFPAVLQSSGLYSLSSVVTVPSSNFGTQTYTCNVDHKPSNTKVDKTVERKCCVECPPCPAPPVAGPSVFLFPPKPKDTLMISRTPEVTCVVVDVSHEDPEVQFNWYVDGVEVHNAKTKPREEQFNSTFRVVSVLTVVHQDWLNGKEYKCKVSNKGLPAPIEKTISKTKGQPREPQVYTLPPSREEMTKNQVSLTCLVKGFYPSDIAVEWESNGQPENNYKTTPPMLDSDGSFFLYSKLTVDKSRWQQGNVFSCSVMHEALHAHYTQKSLSLSPGK
light: DIQMTQSPSSLSASVGDSVTITCQASRDISSHLNWYQQKPGKAPELLIYYGSHLESGVPSRFSGSGSGTDFTFTISSLEAEDAATYYCGQGNRLPYTFGQGTKVEIERTVAAPSVFIFPPSDEQLKSGTASVVCLLNNFYPREAKVQWKVDNALQSGNSQESVTEQDSKDSTYSLSSTLTLSKADYEKHKVYACEVTHQGLSSPVTKSFNRGEC
notes: also called VH2-M71/VL2-CK
Regarding B4, the “kd(pH 5.8)/kd(pH 7.4)” value in test [1] was 11.3.

B5: Fv3-M73 (antibody)
heavy: QVQLQESGPGLVKPSETLSLTCAVSGHSISHDHAWSWVRQPPGEGLEWIGFISYSGITNYNPTLQGRVTISRDNSKNTLYLQMNSLRAEDTAVYYCARSLARTTAMDYWGEGTLVTVSSASTKGPSVFPLAPSSKSTSGGTAALGCLVKDYFPEPVTVSWNSGALTSGVHTFPAVLQSSGLYSLSSVVTVPSSNFGTQTYTCNVDHKPSNTKVDKTVERKSCVECPPCPAPPVAGPSVFLFPPKPKDTLMISRTPEVTCVVVDVSQEDPEVQFNWYVDGVEVHNAKTKPREEQFNSTFRVVSVLTVVHQDWLNGKEYKCKVSNKGLPAPIEKTISKTKGQPREPQVYTLPPSQEEMTKNQVSLTCLVKGFYPSDIAVEWESNGQPENNYKTTPPMLDSDGSFFLYSKLTVDKSRWQEGNVFSCSVMHEALHAHYTQKSLSLSP
light: DIQMTQSPSSLSASVGDSVTITCQASRDISSHLNWYQQKPGKAPELLIYYGSHLLSGVPSRFSGSGSGTDFTFTISSLEAEDAATYYCGQGNRLPYTFGQGTKVEIERTVAAPSVFIFPPSDEQLKSGTASVVCLLNNFYPREAKVQWKVDNALQSGNSQESVTEQDSKDSTYSLSSTLTLSKADYEKHKVYACEVTHQGLSSPVTKSFNRGEC
notes: also called VH4-M73/VL1-CK
Take B5: the “kd(pH 5.8)/kd(pH 7.4)” value in test [1] came out at 10.9.

B6: Fv4-IgG2 (antibody)
heavy: QVQLQESGPGLVKPSETLSLTCAVSGHSISHDHAWSWVRQPPGEGLEWIGFISYSGITNYNPSLQGRVTISRDNSKNTLYLQMNSLRAEDTAVYYCARSLARTTAMDYWGEGTLVTVSSASTKGPSVFPLAPCSRSTSESTAALGCLVKDYFPEPVTVSWNSGALTSGVHTFPAVLQSSGLYSLSSVVTVPSSNFGTQTYTCNVDHKPSNTKVDKTVERKCCVECPPCPAPPVAGPSVFLFPPKPKDTLMISRTPEVTCVVVDVSHEDPEVQFNWYVDGVEVHNAKTKPREEQFNSTFRVVSVLTVVHQDWLNGKEYKCKVSNKGLPAPIEKTISKTKGQPREPQVYTLPPSREEMTKNQVSLTCLVKGFYPSDIAVEWESNGQPENNYKTTPPMLDSDGSFFLYSKLTVDKSRWQQGNVFSCSVMHEALHNHYTQKSLSLSP
light: DIQMTQSPSSLSASVGDSVTITCQASTDISSHLNWYQQKPGKAPELLIYYGSHLLSGVPSRFSGSGSGTDFTFTISSLEAEDAATYYCGQGNRLPYTFGQGTKVEIERTVAAPSVFIFPPSDEQLKSGTASVVCLLNNFYPREAKVQWKVDNALQSGNSQESVTEQDSKDSTYSLSSTLTLSKADYEKHKVYACEVTHQGLSSPVTKSFNRGEC
notes: also called Fv4-IgG2ΔGK; VH3-IgG2ΔGK/VL3-CK
Consider B6, for which the “kd(pH 5.8)/kd(pH 7.4)” value in test [1] and in test [2] was 17 each time.
